Measured values as given in patent publication US20050064507A1, “Determining kinase specificity” (priority 2003, published 2005).

How the values were obtained:
Format in all cases: biochemical
[1] = target: T1, PKA (Homo sapiens, UniProt P17612); assay: In vitro kinase assay: peptide phosphorylation by PKA; details: normalized to best substrate
T1 construct: purchased Calbiochem
Protocol: (§1) Catalytically active preparations of the kinases of interest were either purchased or prepared. Purchased and tested active kinase preparations including the following: PKC-alpha, PKC-delta, PKC-epsilon, PKC-zeta, PKC-mu, PKA, PKG from Calbiochem, ROK alpha/ROCK-II, active from Upstate Biotechnology, and AKT1 from Panvera.
(§2) The conditions of the kinase assay and the amount of active kinase used varied with the kinase and with the accuracy needed. For a typical experiment, 5-20 ng of kinase was used per well and each peptide pool was assayed in duplicate wells. Note that the absolute amount of kinase used was not usually a critical parameter, because the desired information related to specificity of the kinase not its absolute activity, and robustness of the assay depends on comparisons of the same amount of kinase on different peptides. The combination of kinase concentration and assay duration was modified to assure that the stoichiometry of peptide phosphorylation never exceeded 5%. The choice of kinase buffer depended on the kinase being analyzed. For studies of PKC, 100 mM HEPES, 0.05% Triton-X100, 1 mM CaCl2, 20 mM MgCl2, 0.2 mg/ml phosphatidyl serine (Avanti Polar Lipids), PMA 100 ng/ml was typically used. The lipid stock was prepared by transferring 3 mg phosphatidyl serine into iced mixture of 450 μl water plus 50 μl of 10% Triton-X100, sonicating 10 times on ice for 1 sec each.
(§3) The kinase reaction mixture was assembled by sequential addition to a tube held on ice of: 5 μl peptide (100 μM for final concentration of 10 μM), 15 μl of kinase (typically 5 ng/well, in appropriate kinase buffer), 30 μl of ATP (1 uCi/well of ^32P-gamma ATP in a stock of 167 μM cold ATP in the kinase buffer; for final concentration for 100 μM ATP). The mixture was rapidly warmed to desired reaction temperature (30° C. for PKC) and incubated for the desired duration (usually 10 minutes). The kinase assay was terminated by transfer to 4° C. water batch, and rapid addition of an equal volume (50 μl) of stop solution [0.1M ATP+0.1M EDTA in water, pH 8].
(§4) The peptides were then captured from the reaction mixture by transfer to a Reacti-Bind Streptavidin High Binding Capacity Coated Plates (HBC) (Pierce Biotechnology) as follows. The HBC plates were pre-rinsed three times with PBS/Tween PBS/Tween20 0.05% (PBS/Tween). Part of all of the reaction mixture was then transferred wells of a HBC plate pre-filled with 90 μl of phosphate-buffered saline (PBS); typically each aliquots of each phosphorylation reaction were transferred to duplicate HBC plates to assure accuracy by additional replication
(§5) For kinase assays done at the standard peptide concentration of 10 μM, the peptide concentration in the reaction mixture becomes 5 μM after addition of the stop solution; consequently 10 μl of the reaction (50 pMoles of peptide) was transferred to the HBC plate. More generally, the amount of reaction mixture transferred was estimated to be about 50 pMoles of peptide. […] The HBC plates were incubated for 0.5 to 1.5 hr at room temperature for complete binding of biotinylated peptides to plate-bound streptavidin. The HBC plates were then washed extensively with PBS/Tween. Five washes were done routinely and additional wash steps were added if the wash solution removed from the plate had measurable radioactivity as detected using a Geiger counter. This step is essential to obtaining a good the signal to noise ratio because the fraction of radioactivity incorporated in the peptides was a tiny fraction of the total in the reaction mixture. The wells were air-dried. A volume of 40-50 μl of microScint-20 (Packard Instruments) was added to each well. The plates were covered with stick-on film sheet. Radioactive emissions were measured in a TopCount NXT Microplate Scintillation and Luminescence Counter (Packard Instruments). Typically samples were counted for 5 minutes (or more) to improve the signal to noise ratio when counts were low. […]

[2] = target: T2, PKC-zeta (Homo sapiens, UniProt Q05513); assay: In vitro kinase assay: peptide phosphorylation by PKC-zeta; details: for PKC-zeta phosphorylation: normalized to best substrate
T2 construct: purchased Calbiochem
T2 sequence (Q05513 1-592): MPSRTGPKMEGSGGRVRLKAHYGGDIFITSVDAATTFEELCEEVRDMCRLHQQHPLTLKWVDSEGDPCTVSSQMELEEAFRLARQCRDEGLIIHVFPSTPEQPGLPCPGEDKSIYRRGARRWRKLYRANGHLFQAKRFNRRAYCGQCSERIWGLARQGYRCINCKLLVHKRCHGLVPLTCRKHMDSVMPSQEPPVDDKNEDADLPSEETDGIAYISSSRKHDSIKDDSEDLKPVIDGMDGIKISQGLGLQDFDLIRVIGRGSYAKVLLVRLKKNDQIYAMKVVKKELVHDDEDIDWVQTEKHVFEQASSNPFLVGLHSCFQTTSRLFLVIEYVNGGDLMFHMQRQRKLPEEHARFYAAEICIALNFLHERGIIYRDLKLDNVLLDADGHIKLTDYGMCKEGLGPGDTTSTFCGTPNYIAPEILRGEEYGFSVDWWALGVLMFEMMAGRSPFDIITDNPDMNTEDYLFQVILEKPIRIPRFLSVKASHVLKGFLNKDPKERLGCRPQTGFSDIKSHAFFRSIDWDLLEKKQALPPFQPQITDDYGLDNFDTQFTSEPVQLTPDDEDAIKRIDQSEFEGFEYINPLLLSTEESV
Protocol: as §1, §2, §3, §4, §5

[3] = target: T3, AKT1 (Homo sapiens, UniProt P31749); assay: In vitro kinase assay: peptide phosphorylation by AKT1; details: normalized to best substrate
T3 construct: purchased Panvera
T3 sequence (P31749 whole entry, species assumed): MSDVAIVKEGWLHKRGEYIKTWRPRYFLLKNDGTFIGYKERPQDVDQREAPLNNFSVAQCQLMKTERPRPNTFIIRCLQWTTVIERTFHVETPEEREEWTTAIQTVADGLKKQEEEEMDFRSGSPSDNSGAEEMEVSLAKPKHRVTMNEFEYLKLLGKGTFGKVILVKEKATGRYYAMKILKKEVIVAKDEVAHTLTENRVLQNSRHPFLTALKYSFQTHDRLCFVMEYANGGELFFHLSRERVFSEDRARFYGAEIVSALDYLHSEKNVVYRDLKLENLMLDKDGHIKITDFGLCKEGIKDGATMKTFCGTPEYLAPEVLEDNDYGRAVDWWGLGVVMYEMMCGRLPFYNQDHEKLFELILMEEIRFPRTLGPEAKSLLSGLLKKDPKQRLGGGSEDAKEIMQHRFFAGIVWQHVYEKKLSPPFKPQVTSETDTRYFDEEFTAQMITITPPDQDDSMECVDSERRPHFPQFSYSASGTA
Protocol: as §1, §2, §3, §4, §5

Substance	PKA phosphorylation [1]	PKC-zeta phosphorylation [2]	AKT1 phosphorylation [3]	phosphorylation by PKC zeta ([2]; peptide concentration 1 uM)	phosphorylation by PKC zeta ([2]; peptide concentration 10 uM)
77 (KKKKRASFKRKSSKKG) [compound 77]	4%	60%	8%	–	–
78 (KFARKSTRRSIRLPE) [compound 78]	5%	100%	2%	–	–
79 (NRKKKRTSFKRKA) [compound 79]	3%	18%	7%	–	–
114 (KKKKRASFKRKSSKKG) [compound 114]	–	–	–	45	51
115 (NRKKKRTSFKRKA) [compound 115]	–	–	–	11	10
116 (EEGTFRSSIRRLSTRRR) [compound 116]	–	–	–	100	100
117 (NRKKKRTSFKRKA) [compound 117]	–	–	–	20	11
118 (RPQNTLKASKKKKRASFKRK) [compound 118]	–	–	–	46	57
119 (KKRFSFKKSFKLSGFSFKKN) [compound 119]	–	–	–	20	20
120 (AKRRRLSSLRASTSK) [compound 120]	–	–	–	43	34
122 (RAITSTLASSFKRRR) [compound 122]	–	–	–	20	17
123 (KKRFSFKKSFKLSGFSFKKN) [compound 123]	–	–	–	20	20
124 (PRLIRRGSKKRPAR) [compound 124]	–	–	–	45	32
125 (PLKEKKRERKTSSKSSVRKR) [compound 125]	–	–	–	13	12
126 (KAIKAIEGGQKFARKSTRRS) [compound 126]	–	–	–	46	56
127 (SQVQKQRSAGSFKRNSIKKI) [compound 127]	–	–	–	19	19
128 (QQVDRERPHVRRRRGTFKRS) [compound 128]	–	–	–	14	9
129 (VQRHRSMRKTFARYLSFRRD) [compound 129]	–	–	–	51	31
130 (EYLERRASRRRAV) [compound 130]	–	–	–	36	39
131 (WKGKRRSKARKKRK) [compound 131]	–	–	–	7	6
132 (GFLNEPLSSKSQRRKSLKLK) [compound 132]	–	–	–	19	61
133 (LEKRGMLGKRPRRKSSRRKK) [compound 133]	–	–	–	27	30
134 (RSRSRSRSKSKDKRKSRKRS) [compound 134]	–	–	–	5	5
135 (KKKFRTPSFLKKSKK) [compound 135]	–	–	–	11	13
136 (RARRDSLKKIEIW) [compound 136]	–	–	–	6	9

Substance	PKA phosphorylation [1]	PKC-zeta phosphorylation [2]	AKT1 phosphorylation [3]	phosphorylation by PKC zeta ([2]; peptide concentration 1 uM)	phosphorylation by PKC zeta ([2]; peptide concentration 10 uM)
137 (PSKSPSKKKKKFRTPSFLKK) [compound 137]	–	–	–	4	5
138 (EYLERRASRRRAV) [compound 138]	–	–	–	31	61
139 (RPTPGDGEKRSRIKKSKKRK) [compound 139]	–	–	–	1	1
140 (TELEGGFSRQRKRKLSFRRR) [compound 140]	–	–	–	24	49
141 (VTDSQKRREILSRRPSYRKI) [compound 141]	–	–	–	26	78
142 (ERHVAQKKSRLRRRASQLKI) [compound 142]	–	–	–	22	37
143 (VRYTPYTISPYNRKGSFRKQ) [compound 143]	–	–	–	22	79
144 (LSSMFGTLPRKSRKGSVRKQ) [compound 144]	–	–	–	16	54
145 (ISDFGLAKKLAVGRHSFSRR) [compound 145]	–	–	–	25	61
146 (QAQRQIKRGAPPRRSSIRNA) [compound 146]	–	–	–	32	56
147 (RDIRQSPKRGFLRSASLGRR) [compound 147]	–	–	–	28	34
154 (KKFFTQGWAGWRKKTSFRKP) [compound 154]	–	–	–	27	23
155 (RWDKRRWRKIPKRPGSVHRT) [compound 155]	–	–	–	19	6
156 (SAQITIPKDGQKRKKSLRKK) [compound 156]	–	–	–	15	44
157 (PSPSNETPKKKKKRFSFKKS) [compound 157]	–	–	–	3	6
158 (VQMTWSYPDEKNKRASVRRR) [compound 158]	–	–	–	11	72
159 (LYARLARAYRRSQRASFKRA) [compound 159]	–	–	–	25	41
160 (PFEVVWYKDKRQLRSSKKYK) [compound 160]	–	–	–	15	57
161 (KYKAFIRIPIPTRRHTFRRQ) [compound 161]	–	–	–	15	9
162 (KKKFSFKKPFKLSGLSFKRN) [compound 162]	–	–	–	7	4
163 (PPRTPGWHQLQPRRVSFRGE) [compound 163]	–	–	–	7	26
164 (TEGKMARVAWKGKRRSKARK) [compound 164]	–	–	–	3	2
165 (TEEKSKKRKKKHRKNSRKHK) [compound 165]	–	–	–	1	2
166 (MAQIERGEARIQRRISIKKA) [compound 166]	–	–	–	2	9
167 (GLPAPGEDKSIYRRGSRRWR) [compound 167]	–	–	–	5	37
